Target: the molecule itself
Assay: SEC-MALS; purified recombinant PA2504 on a Superdex200 column with HELEOS light scattering instrument; 50 mM Tris-Cl pH 7.0, 300 mM NaCl, 0.5 mL/min

B1: His6-tagged PA2504, recombinant, purified from E. coli (plasmid pQE2504) (natural protein)
chain: MASWTLVDASAIAVRHPYTFYKPDAETIDRVAAGESVKLIFAFDTDNPDAPRAERLWVTVEGIEADGAFSGRLDNYPQYIRDLSLGERIVFEARHIINTEHDPRETPISRYARRCFVTRRVIDEGKAVGYLYREAPEEENDSGWRLMAGDESDDYMNTAGTTAYVSLGSVLNADDSILPLLDAPPGRAFERLADGSFIEVQGPEG
notes: PA2504, uncharacterised protein of Pseudomonas aeruginosa; the PA2504 gene without the start codon cloned into pQE-80L; Dimer by SEC-MALS; No removal of the tag is described; also called His6PA2504; recombinant PA2504 protein; source: E. coli BL21-DE3, purified (Ni-NTA)
- stoichiometry N: 2
